Where a chain is given by its changes, count along the chain named. In names and notes the source's numbering stands. Like-named read-outs stand apart in the source and are kept apart here.
What was measured:
Recombinant human IL-17A [1] = target: T1, Recombinant human IL-17A (human, UniProt Q16552 20-155, limits assumed); test: SPR
T1 sequence (Q16552 20-155 limits assumed): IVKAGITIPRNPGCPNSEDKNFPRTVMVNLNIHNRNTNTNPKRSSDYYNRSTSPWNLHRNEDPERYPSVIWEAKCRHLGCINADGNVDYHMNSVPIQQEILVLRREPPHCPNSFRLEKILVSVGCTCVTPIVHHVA

[2] = target: T2, His-tagged recombinant human CD-19 (human, UniProt P15391 20-291, limits assumed); test: SPR
T2 sequence (looked up): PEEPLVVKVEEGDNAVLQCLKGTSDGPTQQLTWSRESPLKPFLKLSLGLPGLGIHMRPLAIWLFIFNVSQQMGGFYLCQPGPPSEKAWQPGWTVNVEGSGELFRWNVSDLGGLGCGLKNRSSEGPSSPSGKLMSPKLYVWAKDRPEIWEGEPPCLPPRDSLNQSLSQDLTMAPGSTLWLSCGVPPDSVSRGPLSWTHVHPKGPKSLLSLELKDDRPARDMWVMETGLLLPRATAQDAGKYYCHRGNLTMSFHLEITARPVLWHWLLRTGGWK

Recombinant human IL-17A [3] = target: T1, Recombinant human IL-17A; test: SPR; remark: listed apart in the source
[4] = target: T2, His-tagged recombinant human CD-19; test: SPR; remark: listed apart in the source
[5] = target: His-tagged Influenza B Hemagglutinin (B/Brisbane/60/2008) (Influenza B (B/Brisbane/60/2008))
[6] = target: T3, His-tagged recombinant human CD-19 (human, UniProt P15391 20-291, limits assumed); test: SPR; remark: listed apart in the source
T3 sequence (looked up): T2 sequence (looked up)

[7] = target: T3, His-tagged recombinant human CD-19; test: SPR; remark: listed apart in the source
Recombinant human IL-17A [8] = target: T4, Recombinant human IL-17A (human, UniProt Q16552 20-155, limits assumed); test: SPR; remark: listed apart in the source
T4 sequence (Q16552 20-155 limits assumed): as the sequence (Q16552 20-155 limits assumed) above

Recombinant human IL-17A [9] = target: T4, Recombinant human IL-17A; test: SPR; remark: listed apart in the source
[10] = target: CAT-2200 heavy chain Fab construct (H1), wild type; test: LCCA, SPR tag read-out
[11] = target: Pertuzumab heavy chain Fab construct (H2) L45A (VH L45A); test: LCCA, SPR tag read-out
[12] = target: Pertuzumab heavy chain Fab construct (H2) L45P (VH L45P); test: LCCA, SPR tag read-out
[13] = target: CAT-2200 heavy chain Fab construct (H1) L45F (VH L45F); test: LCCA, SPR tag read-out
[14] = target: CAT-2200 heavy chain Fab construct (H1) Q39E (VH Q39E); test: LCCA, SPR tag read-out
[15] = target: Pertuzumab heavy chain Fab construct (H2) Q39R (VH Q39R); test: LCCA, SPR tag read-out

B1: Design 2979 bispecific antibody, System B (CAT-2200 H1/L1 & SGN-CD19a H2/L2) (bispecific antibody)
chain 1: not shown
chain 2: NFMLTQPHSVSESPGKTVTISCTRSSGSLANYYVQWYQQRPGSSPTIVIFANNQRPSGVPDRFSGSIDSSSNSASLTISGLKTEDEADYYCQTYDPYSVVFGGGTKLTVLGQPKAAPSVTLFPPSSEELQANKATLVCLISDFYPGAVTVAWKADSSPVKAGVETTTPSKQSNNKYAAESELSLTPEQWKSHRSYSCQVTHEGSTVEKTVAPTECS
chain 3: not shown
chain 4: EIVLTQSPATLSLSPGERATLSCSASSSVSYMHWYQQKPGQAPRLLIYDTSKLASGIPARFSGSGSGTDFTLTISSLEPEDFAVYYCFQGSVYPFTFGQGTKLEIKRTVAAPSVFIFPPSDEQLKSGTARVGCLLNNFYPREAKVQWKVDNALQSGNSQESVTEQDSKDSTYSLRSTLTLSKADYEKHKVYACEVTHQGLSSPVTKSFNRGEC
Recombinant human IL-17A [1]
  Kd: 0.39 nM
[2]
  Kd: 149 nM
Recombinant human IL-17A [3]
  Difference in H1L1 log(KD) from wild type: -0.14
[4]
  Difference in H2L2 log(KD) from wild type: 0.18

B2: Design 3113 bispecific antibody, System B (CAT-2200 H1/L1 & SGN-CD19a H2/L2) (bispecific antibody)
chain 1: not shown
chain 2: B1 chain 2 with V137D, E179S, E181T
chain 3: not shown
chain 4: B1 chain 4
Recombinant human IL-17A [1]
  Kd: 0.44 nM
[2]
  Kd: 216 nM
Recombinant human IL-17A [3]
  Difference in H1L1 log(KD) from wild type: -0.2
[4]
  Difference in H2L2 log(KD) from wild type: 0.02

B3: Design 3890 bispecific antibody, System C (CR8071 H1/L1 & SGN-CD19a H2/L2) (bispecific antibody)
chain 1: QVQLVQSGAEVKKPGASVRVSCRASGYIFTESGITWVRQAPGQGLEWMGWISGYSGDTKYAQKLQGRVTMTKDTSTTTAYMELRSLRYDDTAVYYCARDVQYSGSYLGAYYFDYWSPGTLVTVSSASTKGPSVFPLRPSSKSTSGGTAALGCLVKDYFPEPVTVSWNSGALTSGVHTFPAVLKSSGLYSLSSVVTVPSSSLGTQTYICNVNHKPSNTKVDKKVEPKSCDKTHTCPPCPAPELLGGPSVFLFPPKPKDTLMISRTPEVTCVVVDVSHEDPEVKFNWYVDGVEVHNAKTKPREEQYNSTYRVVSVLTVLHQDWLNGKEYKCKVSNKALPAPIEKTISKAKGQPREPQVYVYPPSRDELTKNQVSLTCLVKGFYPSDIAVEWESNGQPENNYKTTPPVLDSDGSFALVSKLTVDKSRWQQGNVFSCSVMHEALHNHYTQKSLSLSPG
chain 2: not shown
chain 3: not shown
chain 4: B1 chain 4 with S120K, Q123R, R130S, G132V, R175S, T177R
[5]
  Kd: 0.44 nM
[6]
  Kd: 40.9 nM
[7]
  Difference in H2L2 log(KD) from wild type: 0.22 log(KD)

B4: Design 2901 bispecific antibody, System C (CR8071 H1/L1 & SGN-CD19a H2/L2) (bispecific antibody)
chain 1: B3 chain 1 with R137A, K155T, V181D, K183Q, S191D
chain 2: not shown
chain 3: not shown
chain 4: B1 chain 4 with R130S, R175D
[5]
  Kd: 0.64 nM
[6]
  Kd: 41.9 nM
[7]
  Difference in H2L2 log(KD) from wild type: 0.21 log(KD)

B5: Design 2994 bispecific antibody, System B (CAT-2200 H1/L1 & SGN-CD19a H2/L2) (bispecific antibody)
chain 1: not shown
chain 2: B1 chain 2 with E128Q, T135K, E179S, E181Y
chain 3: not shown
chain 4: B1 chain 4 with Q123E, R130S, G132D, R175S
Recombinant human IL-17A [8]
  Kd: 0.28 nM
[6]
  Kd: 49.7 nM
Recombinant human IL-17A [9]
  Difference in H1L1 log(KD) from wild type: 0.12 log(KD)
[7]
  Difference in H2L2 log(KD) from wild type: 0.16 log(KD)

B6: Design 3967 bispecific antibody, System B (CAT-2200 H1/L1 & SGN-CD19a H2/L2) (bispecific antibody)
chain 1: not shown
chain 2: B1 chain 2 with S126D, K133T
chain 3: not shown
chain 4: B1 chain 4 with S120K, Q123R, R130S, G132V, R175S, T177R
Recombinant human IL-17A [8]
  Kd: 0.38 nM
[6]
  Kd: 36.1 nM
Recombinant human IL-17A [9]
  Difference in H1L1 log(KD) from wild type: -0.13 log(KD)
[7]
  Difference in H2L2 log(KD) from wild type: 0.27 log(KD)

B7: Design 3931 bispecific antibody, System B (CAT-2200 H1/L1 & SGN-CD19a H2/L2) (bispecific antibody)
chain 1: not shown
chain 2: B1 chain 2 with E179S, E181K
chain 3: not shown
chain 4: B1 chain 4 with R130S, R175D
Recombinant human IL-17A [8]
  Kd: 0.29 nM
[6]
  Kd: 54.9 nM
Recombinant human IL-17A [9]
  Difference in H1L1 log(KD) from wild type: 0.11 log(KD)
[7]
  Difference in H2L2 log(KD) from wild type: 0.09 log(KD)

B8: Pertuzumab kappa light chain construct (L2) P44F, HA-tagged (other, not shown: small tags and cut ends)
light: DIQMTQSPSSLSASVGDRVTITCKASQDVSIGVAWYQQKPGKAFKLLIYSASYRYTGVPSRFSGSGSGTDFTLTISSLQPEDFATYYCQQYYIYPYTFGQGTKVEIKRTVAAPSVFIFPPSDEQLKSGTASVVCLLNNFYPREAKVQWKVDNALQSGNSQESVTEQDSKDSTYSLSSTLTLSKADYEKHKVYACEVTHQGLSSPVTKSFNRGEC
[10]
  H1L1:H1L2 normalized median ratio (H1L2 part): 38%
[11]
  H2L2:H2L1 normalized median ratio (H2L2 part): 59%
  H2L2:H2L1 normalized median scalar value ln(r1/f1): 0.37
[12]
  H2L2:H2L1 normalized median ratio (H2L2 part): 67%
  H2L2:H2L1 normalized median scalar value ln(r1/f1): 0.72
[13]
  H1L1:H1L2 normalized median ratio (H1L2 part): 35%

B9: Design 2979 bispecific antibody, System A (CAT-2200 H1/L1 & Pertuzumab H2/L2) (bispecific antibody)
chain 1: not shown
chain 2: B1 chain 2
chain 3: not shown
chain 4: B8 light with F44P, S131R, V133G, S176R
Recombinant human IL-17A [1]
  Kd: 0.31 nM
Recombinant human IL-17A [3]
  Difference in H1L1 log(KD) from wild type: -0.03

B10: Design 3113 bispecific antibody, System A (CAT-2200 H1/L1 & Pertuzumab H2/L2) (bispecific antibody)
chain 1: not shown
chain 2: B1 chain 2 with V137D, E179S, E181T
chain 3: not shown
chain 4: B8 light with F44P, S131R, V133G, S176R
Recombinant human IL-17A [1]
  Kd: 0.39 nM
Recombinant human IL-17A [3]
  Difference in H1L1 log(KD) from wild type: -0.14

B11: Design 3931 bispecific antibody, System A (CAT-2200 H1/L1 & Pertuzumab H2/L2) (bispecific antibody)
chain 1: not shown
chain 2: B1 chain 2 with E179S, E181K
chain 3: not shown
chain 4: B8 light with F44P, V133G, S176D
Recombinant human IL-17A [8]
  Kd: 0.44 nM
Recombinant human IL-17A [9]
  Difference in H1L1 log(KD) from wild type: -0.07 log(KD)

B12: Design 2994 bispecific antibody, System A (CAT-2200 H1/L1 & Pertuzumab H2/L2) (bispecific antibody)
chain 1: not shown
chain 2: B1 chain 2 with E128Q, T135K, E179S, E181Y
chain 3: not shown
chain 4: B8 light with F44P, Q124E, V133D
Recombinant human IL-17A [8]
  Kd: 0.45 nM
Recombinant human IL-17A [9]
  Difference in H1L1 log(KD) from wild type: -0.08 log(KD)

B13: Design 3967 bispecific antibody, System A (CAT-2200 H1/L1 & Pertuzumab H2/L2) (bispecific antibody)
chain 1: not shown
chain 2: B1 chain 2 with S126D, K133T
chain 3: not shown
chain 4: B8 light with F44P, S121K, Q124R, T178R
Recombinant human IL-17A [8]
  Kd: 0.37 nM
Recombinant human IL-17A [9]
  Difference in H1L1 log(KD) from wild type: -0.11 log(KD)

B14: Pertuzumab kappa light chain construct (L2) Q38D, HA-tagged (other, not shown: small tags and cut ends)
light: B8 light with Q38D, F44P
[14]
  H1L1:H1L2 normalized median ratio (H1L2 part): 31%
[15]
  H2L2:H2L1 normalized median ratio (H2L2 part): 56%
  H2L2:H2L1 normalized median scalar value ln(r1/f1): 0.23

— patent publication US20190338048A1 (published 2019)
